T1: Thermus thermophilus BHBDh (TtBHBDh), wild type, SEQ ID NO: 3 (Thermus thermophilus, UniProt Q5SKF0)
T1 sequence (Q5SKF0 1-251): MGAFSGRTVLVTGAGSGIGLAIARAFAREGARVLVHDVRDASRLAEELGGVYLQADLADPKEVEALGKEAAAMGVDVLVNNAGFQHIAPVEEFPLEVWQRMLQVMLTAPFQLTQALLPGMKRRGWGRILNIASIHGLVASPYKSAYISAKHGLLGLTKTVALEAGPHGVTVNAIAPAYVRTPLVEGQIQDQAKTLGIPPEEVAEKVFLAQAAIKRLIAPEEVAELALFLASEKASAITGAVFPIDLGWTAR


What was measured:
[1] = target: T1, Thermus thermophilus BHBDh (TtBHBDh), wild type, SEQ ID NO: 3; assay: BHB concentration-dependent BHBDh activity of TtBHBDh (NADH detection, absorbance at 340 nm); type: biochemical; conditions: 1 mM NAD+, 10 mM HEPES pH 7.8, 0 mM MgCl2, 0-50 mM BHB, room temperature; read-out: Km toward BHB
Procedure: The activity was measured using NADH detection via absorbance at 340 nm, at room temperature. The measurement was done in a solution with 1 mM NAD^+, 10 mM HEPES at pH 7.8, and 0 mM MgCl2·6 H2O, from 0-50 mM BHB.

[2] = substrate: C[C@@H](O)CC(=O)O; assay: NAD dependent BHB dehydrogenase activity of AfBHBDh; type: biochemical, Alcaligenes faecalis

Row | Molecule | Km [1] [µM] | Km [2] [µM] | Vmax [2] [µmol/min/mg]
1 | C[C@@H](O)CC(=O)O [BHB, R-3-hydroxybutyrate] | 359 |  | 
2 | (Alcaligenes faecalis) (protein) MLKGKKAVVTGSTSGIGLAMATELAKAGADVVINGFGQPEDIERERSTLESKFGVKAYYLNADLSDAQATRDFIAKAAEALGGLDILVNNAGIQHTAPIEEFPVDKWNAIIALNLSAVFHGTAAALPIMQKQGWGRIINIASAHGLVASVNKSAYVAAKHGVVGLTKVTALENAGKGITCNAICPGWVRTPLVEKQIEAISQQKGIDIEAAARELLAEKQPSLQFVTPEQLGGAAVFLSSAAADQMTGTTLSLDGGWTAR |  | 1130 | 223

From US20230383265A1, “D-beta-HYDROXYBUTYRATE DEHYDROGENASES (BHBDhs) AND THEIR USE FOR KETONE MONITORING” (The University of North Carolina at Chapel Hill, priority 2022, published 2023)
